Assay results published in publication PMC4196864.

Target: paclitaxel-stabilized microtubules assembled from purified porcine brain tubulin (porcine) (UniProt P02550)
Test: co-sedimentation

Substance: 6xHis/mCherry-tagged XMAP4 phosphomimetic mutant (T758E/T762E) (natural protein)
- fold lower band intensity in MT pellets than the T758A/T762A mutant: 1.4 fold
